Reference: US20170165337A1 (IMMATICS BIOTECHNOLOGIES, published 2017)

Each binder was assayed against T1, HLA-A*02:01 (human) (assay: UV peptide-exchange ELISA).
T1 construct: MHC class I monomer of the UV-ligand exchange assay; also called peptide-receptive MHC molecules; MHC class I
Summary of the method: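 Peptide-MHC complexes formed by UV-mediated exchange of a UV-cleavable peptide for the test peptide; exchange yield quantified by β2m ELISA. Diluted 100-fold, captured on streptavidin-coated plates 1 h at 37 °C, detected with HRP anti-β2m and TMB at 450 nm against refolded HLA-A*02:01 monomer standards (15-500 ng/ml).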

Binder	peptide exchange yield [%]
VLLPQETAEIHL	≥ 75
LLVDVEPKV	50 to 75
RLLEFELAQL	50 to 75
LLAELPASVHA	50 to 75
NLLAHIWAL	50 to 75
YLGPVSPSL	50 to 75
SLASIHVPL	50 to 75
KMDWIFHTI	50 to 75
SLFGPLPGPGPALV	50 to 75
HLIDTNKIQL	50 to 75
FIWPMLIHI	50 to 75
TIAPVTVAV	≥ 75
YMAVTTQEV	≥ 75
NLWSLVAKV	50 to 75
QVIPQLQTV	50 to 75
FLTDYLNDL	50 to 75

Binder	peptide exchange yield [%]
FLHDHQAEL	20 to 50
LISPLLLPV	50 to 75
ATPMPTPSV	20 to 50
LVYEAPETV	50 to 75
FIMDDPAGNSYL	50 to 75
VLWELAHLPTL	50 to 75
VMIQHVENL	50 to 75
VLWFKPVEL	50 to 75
MLLEHGITL	50 to 75
ILQEFESKL	50 to 75
VLIKWFPEV	≥ 75
GLWGTVVNI	50 to 75
FIMEGGAMVL	≥ 75
SLYDVSRMYV	≥ 75
VLMDGSVKL	≥ 75
KLLEEICNL	≥ 75

Continued, values first:

peptide exchange yield [%]	Binder
50 to 75	LLYNSTDPTL
50 to 75	ILTELGGFEV
50 to 75	RLLDLENSLLGL
50 to 75	YLPYIFPNI
≥ 75	VLAFLVHEL
50 to 75	NLQVTQPTV
50 to 75	ALATHILSL
50 to 75	SLADDSVLERL
50 to 75	ELMHGVAGV
≥ 75	SLDLFNCEV
50 to 75	TLENGVPCV
50 to 75	LMKDCEAEV
50 to 75	ALVFELHYV
50 to 75	ALAKPPVVSV
50 to 75	SLYSALQQA
50 to 75	FILPSSLYL
≥ 75	FILTHVDQL
50 to 75	VLMWEIYSL
50 to 75	YLIEPDVELQRI
50 to 75	SLITPLQAV
50 to 75	FLIQEIKTL

peptide exchange yield [%]	Binder
50 to 75	VLYNQRVEEI
50 to 75	VLVQVSPSL
50 to 75	FMQDPMEVFV
50 to 75	YLLEEKIASL
50 to 75	VLAFENPQV
50 to 75	ALSEKLARL
≥ 75	FIDKFTPPV
50 to 75	SIFASPESV
50 to 75	VTLEFPQLIRV
50 to 75	LMADLEGLHL
50 to 75	LLSTLHLLV
20 to 50	YMYEKESEL
≥ 75	FLDMTNWNL
20 to 50	TLLADQGEIRV
50 to 75	VVDGTCVAV
50 to 75	YLYQEQYFI
50 to 75	ILYGTQFVL
50 to 75	ITTEVVNELYV
50 to 75	ALEDRVWEL
50 to 75	VLSVITEEL
